From article PMC10087753 (The Febs Journal, 2022) come the findings set out here.

The target in series [1] is T1, TrCel7A (Trichoderma reesei, UniProt P62694).
T1 sequence (P62694 18-513): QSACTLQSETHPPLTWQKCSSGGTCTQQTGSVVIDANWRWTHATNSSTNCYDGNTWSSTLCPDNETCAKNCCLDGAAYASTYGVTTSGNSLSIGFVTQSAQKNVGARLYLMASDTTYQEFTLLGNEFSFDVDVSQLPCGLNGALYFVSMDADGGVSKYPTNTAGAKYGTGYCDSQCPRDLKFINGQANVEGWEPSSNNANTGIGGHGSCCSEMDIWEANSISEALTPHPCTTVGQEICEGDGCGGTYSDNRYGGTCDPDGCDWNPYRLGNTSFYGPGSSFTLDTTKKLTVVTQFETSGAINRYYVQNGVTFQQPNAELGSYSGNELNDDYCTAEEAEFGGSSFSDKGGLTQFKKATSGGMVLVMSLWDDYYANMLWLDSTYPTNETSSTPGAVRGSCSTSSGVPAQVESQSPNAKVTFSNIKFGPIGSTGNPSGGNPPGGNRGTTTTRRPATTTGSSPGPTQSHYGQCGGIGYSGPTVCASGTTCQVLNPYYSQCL
Briefly: inhibition of pNPL hydrolysis, absorbance of pNP at […] nm. It counts as biochemical. The conditions noted are these: read-out: K i for lactose (μM) ^b; pNPL as substrate, 0.2 mM lactose; competitive; 10 mM sodium acetate, pH 5.0, 20 °C.

Series [2] addresses T2, PcCel7D (Phanerodontia chrysosporium, UniProt Q7LIJ0).
T2 sequence (Q7LIJ0 19-510): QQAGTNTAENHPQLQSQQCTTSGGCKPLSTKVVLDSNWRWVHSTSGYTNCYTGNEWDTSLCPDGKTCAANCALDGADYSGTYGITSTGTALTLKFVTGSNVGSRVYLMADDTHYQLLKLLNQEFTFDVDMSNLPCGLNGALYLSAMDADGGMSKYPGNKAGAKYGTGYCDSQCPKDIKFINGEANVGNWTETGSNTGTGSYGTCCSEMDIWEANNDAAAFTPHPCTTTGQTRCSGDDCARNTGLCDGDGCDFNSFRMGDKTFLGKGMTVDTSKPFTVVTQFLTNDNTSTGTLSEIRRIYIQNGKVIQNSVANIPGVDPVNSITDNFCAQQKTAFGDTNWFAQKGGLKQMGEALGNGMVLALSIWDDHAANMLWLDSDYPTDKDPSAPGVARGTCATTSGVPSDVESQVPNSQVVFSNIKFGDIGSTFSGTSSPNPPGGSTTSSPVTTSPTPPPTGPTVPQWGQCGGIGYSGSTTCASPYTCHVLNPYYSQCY
The description is as above. Conditions: read-out: K i for lactose (μM) ^b; pNPL as substrate, 0.2 mM lactose; competitive; 10 mM sodium acetate, pH 5.0, 20 °C. It counts as biochemical.

Series [3] addresses T3, TrCel7A (Trichoderma reesei, UniProt P62694, E229Q).
T3 sequence (P62694 18-513 E229Q): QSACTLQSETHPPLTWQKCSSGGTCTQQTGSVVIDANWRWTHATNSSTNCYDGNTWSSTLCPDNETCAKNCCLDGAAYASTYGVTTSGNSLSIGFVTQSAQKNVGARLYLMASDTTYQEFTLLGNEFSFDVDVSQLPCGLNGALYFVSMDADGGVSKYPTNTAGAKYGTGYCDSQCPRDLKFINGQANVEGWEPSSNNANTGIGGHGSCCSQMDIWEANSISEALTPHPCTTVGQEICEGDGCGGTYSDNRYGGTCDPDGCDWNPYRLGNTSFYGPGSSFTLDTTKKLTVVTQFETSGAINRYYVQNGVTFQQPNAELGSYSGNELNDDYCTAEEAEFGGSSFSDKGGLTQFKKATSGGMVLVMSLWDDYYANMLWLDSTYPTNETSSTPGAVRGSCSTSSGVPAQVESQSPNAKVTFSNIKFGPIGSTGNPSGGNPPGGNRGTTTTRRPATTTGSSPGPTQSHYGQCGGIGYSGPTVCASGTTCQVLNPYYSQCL
Nature of the series: intrinsic protein fluorescence quenching titration. It counts as binding.

Series [4] concerns the target T1, TrCel7A. Nature of the series: intrinsic protein fluorescence quenching titration. It counts as binding.
For series [5], the target named is T1, TrCel7A. Briefly: inhibition of MUC hydrolysis, fluorometric. It counts as biochemical.
Series [6] has as its target T2, PcCel7D. Briefly: intrinsic protein fluorescence quenching titration. It counts as binding.
The target of series [7] is T4, TrCel7A (Trichoderma reesei, UniProt P62694, E234Q).
T4 sequence (P62694 18-513 E234Q): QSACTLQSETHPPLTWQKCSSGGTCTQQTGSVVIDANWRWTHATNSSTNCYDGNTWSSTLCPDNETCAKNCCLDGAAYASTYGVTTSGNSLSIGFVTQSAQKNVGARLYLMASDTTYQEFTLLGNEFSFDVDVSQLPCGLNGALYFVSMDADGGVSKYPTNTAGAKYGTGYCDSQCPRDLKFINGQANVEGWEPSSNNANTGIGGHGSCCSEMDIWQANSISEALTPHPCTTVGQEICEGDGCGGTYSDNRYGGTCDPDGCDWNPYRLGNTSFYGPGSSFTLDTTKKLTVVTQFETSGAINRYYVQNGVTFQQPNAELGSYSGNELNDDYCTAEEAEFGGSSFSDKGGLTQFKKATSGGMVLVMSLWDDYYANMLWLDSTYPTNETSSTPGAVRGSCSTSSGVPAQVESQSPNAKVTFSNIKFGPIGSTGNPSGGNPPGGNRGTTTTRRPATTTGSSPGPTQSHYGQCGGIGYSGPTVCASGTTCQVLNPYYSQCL
Briefly: intrinsic protein fluorescence quenching titration. The class given is binding.

The target in series [8] is T5, TrCel7A (Trichoderma reesei, UniProt P62694, D231N).
T5 sequence (P62694 18-513 D231N): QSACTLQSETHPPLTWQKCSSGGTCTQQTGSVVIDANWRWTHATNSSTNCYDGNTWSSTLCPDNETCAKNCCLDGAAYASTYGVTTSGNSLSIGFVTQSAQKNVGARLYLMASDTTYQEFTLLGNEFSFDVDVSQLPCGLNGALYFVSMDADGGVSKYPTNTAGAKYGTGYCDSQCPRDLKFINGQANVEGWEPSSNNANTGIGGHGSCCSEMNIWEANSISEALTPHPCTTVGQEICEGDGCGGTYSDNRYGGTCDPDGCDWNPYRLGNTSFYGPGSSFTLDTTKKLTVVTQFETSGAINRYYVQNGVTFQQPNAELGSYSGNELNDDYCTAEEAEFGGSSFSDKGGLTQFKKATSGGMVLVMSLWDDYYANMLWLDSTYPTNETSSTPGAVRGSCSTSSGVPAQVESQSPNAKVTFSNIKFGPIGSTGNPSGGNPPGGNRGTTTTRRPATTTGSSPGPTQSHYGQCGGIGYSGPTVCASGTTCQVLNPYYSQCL
Briefly: intrinsic protein fluorescence quenching titration. The class given is binding.

Substrate in series [9]: Cc1cc(=O)oc2cc(O[C@@H]3O[C@H](CO)[C@@H](O[C@@H]4O[C@H](CO)[C@@H](O)[C@H](O)[C@H]4O)[C@H](O)[C@H]3O)ccc12
Nature of the series: purified protein. Conditions: 50 mM sodium acetate, pH 5.0, 25 °C.

Substrate in series [10]: O=[N+]([O-])c1ccc(O[C@@H]2O[C@H](CO)[C@@H](O[C@@H]3O[C@H](CO)[C@@H](O)[C@H](O)[C@H]3O)[C@H](O)[C@H]2O)cc1
Nature of the series: purified protein. The conditions noted are these: 50 mM sodium acetate, pH 5.0, 25 °C.

Substrate in series [11]: O=[N+]([O-])c1ccccc1O[C@@H]1O[C@H](CO)[C@@H](O[C@@H]2O[C@H](CO)[C@@H](O)[C@H](O)[C@H]2O)[C@H](O)[C@H]1O
Nature of the series: purified protein. Conditions: 50 mM sodium acetate, pH 5.0, 25 °C.

Substrate in series [12]: [H][C@@]1(O[C@H]2[C@H](O)[C@@H](O)[C@H](Oc3ccc([N+](=O)[O-])cc3)O[C@@H]2CO)O[C@H](CO)[C@H](O)[C@H](O)[C@H]1O
Nature of the series: purified protein. The conditions noted are these: 50 mM sodium acetate, pH 5.0, 25 °C.

For the molecule `OC[C@H]1O[C@@H](O[C@H]2[C@H](O)[C@@H](O)C(O)O[C@@H]2CO)[C@H](O)[C@@H](O)[C@H]1O` (some centres unmarked) [lactose], the Ki in series [1] was determined as 180 ± 16 µM; in [2], 183 ± 16 µM.
As to `O=[N+]([O-])c1ccccc1O[C@@H]1O[C@H](CO)[C@@H](O[C@@H]2O[C@H](CO)[C@@H](O)[C@H](O)[C@H]2O)[C@H](O)[C@H]1O` [oNPC, o-nitrophenyl-β-D-cellobioside], the equilibrium dissociation constant (Kd) in [3] came out at 4.7 ± 0.4 µM; in series [4], 7.4 ± 0.4 µM; in series [6] it was 110 ± 10 µM; in [7] it was 3.9 ± 0.4 µM; in [8], 7.1 ± 0.7 µM. Also, the Ki in series [5] stood at 5.6 ± 0.5 µM.

B1: TrCel7A (Trichoderma reesei) (protein)
chain: QSACTLQSETHPPLTWQKCSSGGTCTQQTGSVVIDANWRWTHATNSSTNCYDGNTWSSTLCPDNETCAKNCCLDGAAYASTYGVTTSGNSLSIGFVTQSAQKNVGARLYLMASDTTYQEFTLLGNEFSFDVDVSQLPCGLNGALYFVSMDADGGVSKYPTNTAGAKYGTGYCDSQCPRDLKFINGQANVEGWEPSSNNANTGIGGHGSCCSEMDIWEANSISEALTPHPCTTVGQEICEGDGCGGTYSDNRYGGTCDPDGCDWNPYRLGNTSFYGPGSSFTLDTTKKLTVVTQFETSGAINRYYVQNGVTFQQPNAELGSYSGNELNDDYCTAEEAEFGGSSFSDKGGLTQFKKATSGGMVLVMSLWDDYYANMLWLDSTYPTNETSSTPGAVRGSCSTSSGVPAQVESQSPNAKVTFSNIKFGPIGSTGNPSGGNPPGGNRGTTTTRRPATTTGSSPGPTQSHYGQCGGIGYSGPTVCASGTTCQVLNPYYSQCL
On to B1, for which, in [9], the Km came out at 12 ± 1 µM, the kcat came to 0.013 ± 0.001 s⁻¹ and the kcat/Km turned out to be 1080 M⁻¹ s⁻¹.

B2: PcCel7D (Phanerodontia chrysosporium) (protein)
chain: QQAGTNTAENHPQLQSQQCTTSGGCKPLSTKVVLDSNWRWVHSTSGYTNCYTGNEWDTSLCPDGKTCAANCALDGADYSGTYGITSTGTALTLKFVTGSNVGSRVYLMADDTHYQLLKLLNQEFTFDVDMSNLPCGLNGALYLSAMDADGGMSKYPGNKAGAKYGTGYCDSQCPKDIKFINGEANVGNWTETGSNTGTGSYGTCCSEMDIWEANNDAAAFTPHPCTTTGQTRCSGDDCARNTGLCDGDGCDFNSFRMGDKTFLGKGMTVDTSKPFTVVTQFLTNDNTSTGTLSEIRRIYIQNGKVIQNSVANIPGVDPVNSITDNFCAQQKTAFGDTNWFAQKGGLKQMGEALGNGMVLALSIWDDHAANMLWLDSDYPTDKDPSAPGVARGTCATTSGVPSDVESQVPNSQVVFSNIKFGDIGSTFSGTSSPNPPGGSTTSSPVTTSPTPPPTGPTVPQWGQCGGIGYSGSTTCASPYTCHVLNPYYSQCY
For B2, the Km in series [10] amounted to 1300 ± 160 µM; in series [9], 210 ± 20 µM; in series [11] it was 3200 ± 100 µM; in [12], 5500 ± 400 µM. The catalytic constant (kcat) turned out to be 0.046 ± 0.0021 s⁻¹ in series [10], 0.22 ± 0.01 s⁻¹ in [9], 0.015 ± 0.002 s⁻¹ in series [11] and 0.17 ± 0.01 s⁻¹ in [12]. Moreover, the kcat/Km in series [10] worked out at 35 M⁻¹ s⁻¹; in series [9] it was 1050 M⁻¹ s⁻¹; in series [11], 4.6 M⁻¹ s⁻¹; in series [12], 31 M⁻¹ s⁻¹.
